Patent US20110189776, “PROKARYOTIC RNAi-LIKE SYSTEM AND METHODS OF USE” (University of Georgia Research Foundation, Inc., published 2011)

Target: native psiRNP containing Cmr1-1, Cmr1-2, Cmr2, Cmr3, Cmr4, Cmr5, Cmr6 (Pyrococcus furiosus, UniProt Q8U1S5;Q8U3V3;Q8U1S6;Q8U1S7;Q8U1S9;Q8U1T0;Q8U1T1 …)
Assay: EMSA; native gel Northern with psiRNA 7.01 probe; mobility shift lost on deproteinization
Settings: tags: S-sepharose peak fraction, endogenous psiRNAs; other co-purifying proteins present

AUUGAAAGUUGUAGUAUGCGGUCCUUGCGGCUGAGAGCACUUCAG (ssRNA) [psiRNA 7.01, 45 nt]: binds.
